These results are taken from publication PMC3510510, “Structural insight of a concentration-dependent mechanism by which YdiV inhibits Escherichia coli flagellum biogenesis and motility” (Nucleic Acids Research, 2012).

Sequences and labels used below:
B2: YdiV (natural protein, E. coli)
chain: MKIFLENLYHSDCYFLPIRDNQQVLVGVELITHFSSEDGTVRIPTSRVIAQLTEEQHWQLFSEQLELLKSCQHFFIQHKLFAWLNLTPQVATLLLERDNYAGELLKYPFIELLINENYPHLNEGKDNRGLLSLSQVYPLVLGNLGAGNSTMKAVFDGLFTRVMLDKSFIQQQITHRSFEPFIRAIQAQISPCCNCIIAGGIDTAEILAQITPFDFHALQGCLWPAVPINQITTLVQR
notes: YdiV, E. coli; the ydiV gene was cloned into pET29b and pGL01; His-tag removal by PPase is stated for prey proteins of the pull-down; The crystal of YdiV alone (3TLQ) was phased with Se-Met-YdiV; also called native YdiV; wild-type YdiV; source: E. coli BL21(DE3), purified (Ni2+-NTA, Source-Q, Superdex 200)

The target in assay [1] is B2. As to the kind of experiment: pull-down; His-tagged bait immobilised on Ni2+-NTA beads, prey with His-tag removed by PPase; 4°C, 30 min; 25 mM Tris-HCl pH 8.0, 100 mM NaCl; eluted with 250 mM imidazole; SDS-PAGE, Coomassie. The note with it: both partners purified.
Assay [2] has as its target T1, FlhD4C2 complex (E. coli, UniProt P0A8S9 1-116; P0ABY7 1-192).
T1 construct: FlhD, E. coli, from the whole flhDC operon; FlhC, E. coli, from the whole flhDC operon; also called FlhDC; FlhDC-His; source: E. coli BL21(DE3), co-expression from the whole flhDC operon in pET21b; purified; also co-expressed with YdiV (in lysate); not shown: His-tag, C-terminal, kept; copies: 4 + 2
T1 sequence 1: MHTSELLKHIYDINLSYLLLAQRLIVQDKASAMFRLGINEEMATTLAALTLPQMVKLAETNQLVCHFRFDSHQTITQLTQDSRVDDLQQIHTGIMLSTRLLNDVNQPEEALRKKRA
T1 sequence 2: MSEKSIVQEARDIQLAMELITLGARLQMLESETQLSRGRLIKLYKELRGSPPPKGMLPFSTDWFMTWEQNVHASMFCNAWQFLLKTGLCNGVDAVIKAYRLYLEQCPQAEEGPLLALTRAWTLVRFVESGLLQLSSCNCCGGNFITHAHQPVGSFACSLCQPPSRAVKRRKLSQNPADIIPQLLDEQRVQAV
The assay can be described thus: SEC; YdiV and FlhD4C2 mixed at molar ratios 5:1, 4:1, 3:1, 2:1 or 1:1 for 10 min at room temperature; Superdex 200; fractions on SDS-PAGE. The conditions noted are these: both partners purified. For orientation: Size exclusion chromatography separates by hydrodynamic size, large species first.

The target in assay [3] is T1, FlhD4C2 complex. The assay can be described thus: cell-based or functional assay.
In assay [4] the target is T2, DCmut-2 (FlhDC complex with FlhC R37E, R39E, K42E, K45E) (E. coli, UniProt P0A8S9 1-116; P0ABY7 1-192, R37E | R39E | K42E | K45E).
T2 construct: FlhD, E. coli; FlhC, E. coli, four substitutions; Probably carries the C-terminal His-tag on FlhC as the wild-type complex does; the methods say only that mutants were cloned into pGL01; source: E. coli, purified
T2 sequence 1: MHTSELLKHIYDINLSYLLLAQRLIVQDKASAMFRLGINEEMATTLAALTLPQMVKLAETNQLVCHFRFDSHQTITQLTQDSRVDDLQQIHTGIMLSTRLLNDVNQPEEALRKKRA
T2 sequence 2: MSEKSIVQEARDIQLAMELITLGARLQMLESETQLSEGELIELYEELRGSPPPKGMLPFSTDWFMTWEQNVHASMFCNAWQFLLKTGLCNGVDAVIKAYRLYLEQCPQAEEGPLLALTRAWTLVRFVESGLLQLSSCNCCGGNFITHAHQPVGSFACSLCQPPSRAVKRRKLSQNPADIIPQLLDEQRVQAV
The assay can be described thus: pull-down; His-tagged bait immobilised on Ni2+-NTA beads, prey with His-tag removed by PPase; 4°C, 30 min; 25 mM Tris-HCl pH 8.0, 100 mM NaCl; eluted with 250 mM imidazole; SDS-PAGE, Coomassie. The conditions noted are these: both partners purified.

Assay [5] addresses T3, DCmut-1 (FlhDC complex with FlhC K42E, K45E) (E. coli, UniProt P0A8S9 1-116; P0ABY7 1-192, K42E | K45E).
T3 construct: FlhD, E. coli; FlhC, E. coli; Lys42 and Lys45 substituted by Glu; Probably carries the C-terminal His-tag on FlhC as the wild-type complex does; the methods say only that mutants were cloned into pGL01; source: E. coli, purified
T3 sequence 1: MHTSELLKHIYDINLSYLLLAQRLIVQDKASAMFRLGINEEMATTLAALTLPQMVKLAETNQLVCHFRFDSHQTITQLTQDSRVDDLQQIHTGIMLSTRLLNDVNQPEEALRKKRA
T3 sequence 2: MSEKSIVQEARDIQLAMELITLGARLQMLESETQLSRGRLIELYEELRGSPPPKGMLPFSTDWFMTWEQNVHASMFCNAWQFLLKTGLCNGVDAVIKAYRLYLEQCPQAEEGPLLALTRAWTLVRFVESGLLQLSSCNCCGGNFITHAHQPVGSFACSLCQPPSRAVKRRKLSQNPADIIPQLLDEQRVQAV
The description is as above. The note with it: both partners purified.

B1: FlhD fragment 1–82aa (domain or fragment, E. coli, UniProt P0A8S9 1-82, looked up)
chain: MHTSELLKHIYDINLSYLLLAQRLIVQDKASAMFRLGINEEMATTLAALTLPQMVKLAETNQLVCHFRFDSHQTITQLTQDS
notes: FlhD, E. coli, residues 1-82; also called FlhD (1–82aa); source: E. coli, purified recombinant protein
Take B1: the binding result in assay [1] was “binds”.

The term stoichiometry N denotes a count of units in the complex or per binding partner. Consider B2, for which the “stoichiometry N” value in assay [2] came out at 4 YdiV per FlhD4C2. In addition, the “EMSA: DNA binding of FlhD4C2 (49-bp flhB promoter) with 5-fold excess of YdiV and at different molar ratios of YdiV:FlhD4C2” value in assay [3] was > 3 molar ratio YdiV:FlhD4C2. Further, the binding result in assay [4] and in assay [5] was “binds” throughout.

B3: FlhD-His (natural protein, E. coli)
chain: MHTSELLKHIYDINLSYLLLAQRLIVQDKASAMFRLGINEEMATTLAALTLPQMVKLAETNQLVCHFRFDSHQTITQLTQDSRVDDLQQIHTGIMLSTRLLNDVNQPEEALRKKRA
notes: FlhD, E. coli; the flhD gene was cloned into pET29b and pGL01; source: E. coli BL21(DE3): co-expressed with YdiV (in lysate); purified as bait for the pull-down
As for B3, the binding result in assay [1] is on record as “binds”.

B4: FlhD fragment 1–98aa (domain or fragment, E. coli, UniProt P0A8S9 1-98, looked up)
chain: MHTSELLKHIYDINLSYLLLAQRLIVQDKASAMFRLGINEEMATTLAALTLPQMVKLAETNQLVCHFRFDSHQTITQLTQDSRVDDLQQIHTGIMLST
notes: FlhD, E. coli, residues 1-98; also called FlhD (1–98aa); source: E. coli, purified recombinant protein
As to B4, the binding result in assay [1] is “binds”.

B5: FlhD fragment 1–106aa (domain or fragment, E. coli, UniProt P0A8S9 1-106, looked up)
chain: MHTSELLKHIYDINLSYLLLAQRLIVQDKASAMFRLGINEEMATTLAALTLPQMVKLAETNQLVCHFRFDSHQTITQLTQDSRVDDLQQIHTGIMLSTRLLNDVNQ
notes: FlhD, E. coli, residues 1-106; also called FlhD (1–106aa); source: E. coli, purified recombinant protein
On to B5, for which the binding result in assay [1] was “binds”.

B6: FlhD fragment 1–71aa (domain or fragment, E. coli, UniProt P0A8S9 1-71, looked up)
chain: MHTSELLKHIYDINLSYLLLAQRLIVQDKASAMFRLGINEEMATTLAALTLPQMVKLAETNQLVCHFRFDS
notes: FlhD, E. coli, residues 1-71; also called FlhD (1–71aa); source: E. coli, purified recombinant protein
On to B6, for which the binding result in assay [1] is given as “binds”.
